Source: patent US11951131B2, “Anti-SLAMF7 chimeric antigen receptors” (The United States of America, as represented by the …, priority 2018, dated 2024)

Experiments:
Assay type in all cases: cell-based, human
SLAMF7-RPMI = assay: IFN-gamma ELISA, CAR T cells cultured overnight with SLAMF7-RPMI target cells
Source text: (§1) MM.1S is a SLAMF7^+ multiple myeloma cell line that was obtained from American Type Culture Collection (ATCC). A549 is a BCMA-negative lung cancer cell line (ATCC). TC71 is a BCMA-negative sarcoma cell line. CCRF-CEM, 293T, and A549 are SLAMF7-negative cell lines (ATCC). COL0207, HepG2, U251, Panc10.05, and TC71 are […] that were kind gifts from Dr. Steven Rosenberg, National Cancer Institute. SLAMF7-K562 are K562 cells (ATCC) which were transduced with the gene for full-length SLAMF7. SLAMF7-RPMI are RPMI8226 cells (ATCC) which were transduced with the gene for full-length SLAMF7. NGFR-K562 are K562 cells which were transduced with the gene for low-affinity nerve growth factor (Kochenderfer et al., J. Immunother., 32(7): 689-702 (2009)). All of the human samples mentioned were obtained from patients enrolled in IRB-approved clinical trials at the National Cancer Institute.
(§2) One-hundred thousand SLAMF7^+ or SLAMF7-negative target cells were combined with 100,000 CAR-transduced T cells in duplicate wells of a 96 well round bottom plate in 200 µL of AIM V™ medium (Invitrogen) plus 5% human serum. The plates were incubated at 37° C. for 18-20 hours. Following the incubation, ELISAs (enzyme-linked immunosorbent assays) for IFNγ were performed by using standard methods.
(§3) The T cells columns indicate whether T cells were transduced with Luc90-CD828Z, Luc63-CD828Z, or were untransduced. The % CAR^+ in Table B-1 was determined by staining the T cells with Protein L. Except for the % CAR^+ column, all values are pg/mL of IFN-gamma. T cells that were either untransduced or transduced with one of the indicated CARs were cultured with target cells overnight and a standard IFN-gamma ELISA was performed on the culture supernatant.
(§4) All values are pg/mL of IFN-gamma. T cells that were either untransduced or transduced with one of the indicated CARs were cultured with target cells overnight, and a standard IFN-gamma ELISA was performed on the culture supernatant.
(§5) The values in the cells are pg/mL of IFN-gamma. T cells that were either untransduced or transduced with one of the indicated CARs were cultured with target cells overnight, and a standard IFN-gamma ELISA was performed on the culture supernatant. The concentrations of 0, 50, or 200 ng/mL at the top of each column indicates the concentration of soluble SLAMF7 added to all T cell plus target cell overnight cultures in that column. The soluble SLAMF7 was added at the beginning of the overnight culture.

SLAMF7-K562 = assay: IFN-gamma ELISA, CAR T cells cultured overnight with SLAMF7-K562 target cells
Source text: as §1, §2, §3, §4

NGFR-K562 = assay: IFN-gamma ELISA, CAR T cells with NGFR-K562 target cells
Source text: as §1, §2, §3, §4, §5

T cells only = assay: IFN-gamma ELISA, T cells only (no target cells)
Experimental: as §2, §3, §4, §5

MM.1S = assay: IFN-gamma ELISA, CAR T cells with MM.1S target cells; details: Table C
Source text: as §1, §2, §4

H929 = assay: IFN-gamma ELISA, CAR T cells with H929 target cells; details: Table C
Experimental: as §2, §4

CCRF-CEM = assay: IFN-gamma ELISA, CAR T cells with CCRF-CEM target cells; details: Table C
Source text: as §1, §2, §4

SLAMF7^+ target cells = assay: IFN-gamma ELISA and functional assays; details: 4-1BB-containing CAR compared to Luc90-CD828Z (Table C)
Experimental: as §2
CAR-expressing T cells cultured alone produced very low levels of IFNγ. IFNγ production of T cells expressing a CAR with a 4-1BB moiety, Luc90-CD8BBZ, was compared to IFNγ production of T cells expressing Luc90-CD828Z (Table C). […] Low levels of soluble SLAMF7 are found in the serum of some MM patients (see Tai, et al., Blood, 112(4): 1329-1337 (2008)). IFNγ ELISA assays were conducted to determine if adding SLAMF7 to cultures of anti-SLAMF7 CAR T cells plus target cells could block IFNγ release by the CAR T cells (Table D). IFNγ release by the CART cells was used as a measure recognition of the SLAMF7^+ target cells by the CAR T cells. The concentrations of soluble SLAMF7 added to the cultures were similar to those found in the blood of patients. Blocking of SLAMF7^+ target cell recognition by the soluble SLAMF7 was not observed. Also, activation of the anti-SLAMF7 CAR T cells by the soluble SLAMF7 was not observed.

293T = assay: IFN-gamma ELISA, CAR T cells with 293T target cells; details: Table B-1; SLAMF7-negative cell line
Source text: as §1
(§6) One-hundred thousand SLAMF7^+ or SLAMF7-negative target cells were combined with 100,000 CAR-transduced T cells in duplicate wells of a 96 well round bottom plate in 200 µL of AIM V™ medium (Invitrogen) plus 5% human serum. […]
(§7) The T cells columns indicate whether T cells were transduced with Luc90-CD828Z, Luc63-CD828Z, or were untransduced. The % CAR^+ in Table B-1 was determined by staining the T cells with Protein L. Except for the % CAR^+ column, all values are pg/mL of IFN-gamma. […]

COLO 205 = assay: IFN-gamma ELISA, CAR T cells with COLO 205 target cells; details: Table B-1
Source text: as §1, §6, §7

HepG2 = assay: IFN-gamma ELISA, CAR T cells with HepG2 target cells; details: Table B-1
Source text: as §1, §6, §7

U251 = assay: IFN-gamma ELISA, CAR T cells with U251 target cells; details: Table B-2
Source text: as §1, §6, §7

Panc 10.05 = assay: IFN-gamma ELISA, CAR T cells with Panc 10.05 target cells; details: Table B-2
Source text: as §1, §6, §7

TC71 = assay: IFN-gamma ELISA, CAR T cells with TC71 target cells; details: Table B-2
Source text: as §1, §6, §7

A549 = assay: IFN-gamma ELISA, CAR T cells with A549 target cells; details: Table B-2; SLAMF7-negative
Source text: as §1, §6, §7

[1] = Table D, soluble SLAMF7 added 0 ng/ml
[2] = Table D, soluble SLAMF7 added 50 ng/ml
[3] = Table D, soluble SLAMF7 added 200 ng/ml

“Luc90-CD8BBZ: anti-SLAMF7 CAR (SEQ ID NO: 29): Luc90-CD828Z with the CD28 moiety replaced with a 4-1BB moiety” was tested, and the “IFN-gamma, target cells SLAMF7-RPMI8226” value (SLAMF7-RPMI; Table C, overnight culture) was 19713 pg/mL, the “IFN-gamma, target cells SLAMF7-K562” value (SLAMF7-K562; Table C) was 16697 pg/mL and the “IFN-gamma, target cells NGFR-K562” value (NGFR-K562; Table C) was 434 pg/mL. The “IFN-gamma, T cells only” value (T cells only; Table C) was 531 pg/mL, the “IFN-gamma, target cells MM.1S” value (MM.1S) was 5101 pg/mL and the “IFN-gamma, target cells H929” value (H929) was 856 pg/mL. For the same molecule, the “IFN-gamma, target cells CCRF-CEM” value (CCRF-CEM) was 278 pg/mL and the background cytokine release (SLAMF7^+ target cells) was “Generally higher background cytokine release”.

B1: Luc63-CD828Z: anti-SLAMF7 CAR (SEQ ID NO: 28): identical to Luc90-CD828Z except scFv from humanized Luc63 antibody (protein)
chain: MALPVTALLLPLALLLHAARPDIQMTQSPSSLSASVGDRVTITCKASQDVGIAVAWYQQKPGKVPKLLIYWASTRHTGVPDRFSGSGSGTDFTLTISSLQPEDVATYYCQQYSSYPYTFGQGTKVEIKGSTSGSGKPGSGEGSTKGEVQLVESGGGLVQPGGSLRLSCAASGFDFSRYWMSWVRQAPGKGLEWIGEINPDSSTINYAPSLKDKFIISRDNAKNSLYLQMNSLRAEDTAVYYCARPDGNYWYFDVWGQGTLVTVSSFVPVFLPAKPTTTPAPRPPTPAPTIASQPLSLRPEACRPAAGGAVHTRGLDFACDIYIWAPLAGTCGVLLLSLVITLYCNHRNRSKRSRLLHSDYMNMTPRRPGPTRKHYQPYAPPRDFAAYRSRVKFSRSADAPAYQQGQNQLYNELNLGRREEYDVLDKRRGRDPEMGGKPRRKNPQEGLYNELQKDKMAEAYSEIGMKGERRRGKGHDGLYQGLSTATKDTYDALHMQALPPR
For B1, the “IFN-gamma, target cells SLAMF7-RPMI” value (SLAMF7-RPMI; Table B-1, overnight culture, ELISA on supernatant) was 8123 pg/mL, the “IFN-gamma, target cells SLAMF7 RPMI 0 ng/ml” value (SLAMF7-RPMI; [1]) was 3495 pg/mL and the “IFN-gamma, target cells SLAMF7 RPMI 50 ng/ml” value (SLAMF7-RPMI; [2]) was 2.873 ng/mL. For the same molecule, the “IFN-gamma, target cells CD319 RPMI 200 ng/ml” value (SLAMF7-RPMI; [3]) was 3083 pg/mL, the “IFN-gamma, target cells SLAMF7-K562” value (SLAMF7-K562; Table B-1, overnight culture) was 7106 pg/mL and the “IFN-gamma, target cells SLAMF7-K562” value (SLAMF7-K562; Table B-2, overnight culture) was 7524 pg/mL. For the same molecule, the “IFN-gamma, target cells 293T” value (293T) was 38 pg/mL, the “IFN-gamma, target cells COLO 205” value (COLO 205) was 29 pg/mL and the “IFN-gamma, target cells HepG2” value (HepG2) was 33 pg/mL. The “IFN-gamma, target cells U251” value (U251) was 46 pg/mL, the “IFN-gamma, target cells Panc 10.05” value (Panc 10.05) was 53 pg/mL and the “IFN-gamma, target cells NGFR-K562” value (NGFR-K562; Table B-2, SLAMF7-negative) was 78 pg/mL. The “IFN-gamma, target cells NGFR K562 0 ng/ml” value (NGFR-K562; [1]) was 191 pg/mL, the “IFN-gamma, target cells NGFR K562 50 ng/ml” value (NGFR-K562; [2]) was 98 pg/mL and the “IFN-gamma, target cells NGFR K562 200 ng/ml” value (NGFR-K562; [3]) was 83 pg/mL. For the same molecule, the “IFN-gamma, target cells TC71” value (TC71) was 113 pg/mL, the “IFN-gamma, target cells A549” value (A549) was 76 pg/mL and the “IFN-gamma, T cells only” value (T cells only; Table B-2) was 71 pg/mL. For the same molecule, the “IFN-gamma, T cells 0 ng/ml” value (T cells only; Table D, no target cells, soluble SLAMF7 0 ng/ml) was 20 pg/mL, the “IFN-gamma, T cells 50 ng/ml” value (T cells only; Table D, no target cells, soluble SLAMF7 50 ng/ml) was 22 pg/mL and the “IFN-gamma, T cells 200 ng/ml” value (T cells only; Table D, no target cells, soluble SLAMF7 200 ng/ml) was 30 pg/mL.
